Test [1] has as its target T1, Cynomolgus CD3 epsilon protein (cynomolgus monkey, UniProt Q95LI5 22-117).
T1 construct: extracellular domain; The method names a bought protein (Acro # CDE-05226), the result names W331-cynoProl.ECD.His; also called W331-cynoProl.ECD.His; Acro # CDE-05226; not shown: His tag by the construct's name
T1 sequence (looked up): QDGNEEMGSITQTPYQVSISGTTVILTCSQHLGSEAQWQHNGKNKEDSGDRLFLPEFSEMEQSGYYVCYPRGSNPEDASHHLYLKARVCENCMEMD
Put plainly: ELISA on coated cynomolgus CD3 epsilon protein. The protocol: The binding of the CD3×CD19 bispecific antibody to cynomolgus CD3 were tested by protein binding ELISA. 96-well high protein binding ELISA plates (Nunc MaxiSorp, ThermoFisher, Thermo-442404) were coated overnight at 4° C. with 100 ul of 1 μg/ml Cynomolgus CD3 epsilon protein (Acro, # CDE-05226) in Carbonate-bicarbonate buffer (20 mM Na2CO3, 180 mM NaHCO₃, PH9.2). All wells were washed one time with 300 μL per well of PBS/0.5% Tween-20 (v/v). The wells were then blocked for one hour at room temperature with 200 μL per well of PBS/2% BSA (BOVOGEN, # BSAS) and washed three times with 300 μL per well of PBS/0.5% Tween-20 (v/v). For the primary antibody binding, CD3×CD19 bispecific antibody serially diluted in PBS/2% BSA were added to the relevant wells and incubated at room temperature for two hours. Plates were washed three times like before prior to the addition of 100 ul of 100 ng/ml secondary antibody Goat-anti-human IgG Fc-HRP (Bethyl, # A80-304P). Plates were incubated at room temperature for one hour, followed by six washes as described above. […] The extent of bispecific antibody binding to cynomolgus CD3 was determined by measuring the OD450 absorbance using the SpectraMax® M5e microplate reader. […]
On the technique in general: ELISA stands for enzyme-linked immunosorbent assay.

Test [2] deals with FcRn (UniProt P55899 24-297; P61769 21-119, limits assumed). Put plainly: SPR (Biacore) at pH 6.0, antibody immobilized, FcRn injected, steady state fit. How it is done: Antibody binding affinity to FcRn was detected using Biacore T200 (or Biacore 8K). Each antibody was immobilized on CMS sensor chip (GE). FcRn at different concentrations in running buffer (50 mM Na2HPO4/NaH2PO4, 150 mM NaCl, 0.05% Tween20, pH 6.0) were injected over the sensor chip at a flow rate of 30 uL/min for an association phase of 60 s, followed by 60 s dissociation. The chip was then regenerated by 1×PBS (pH 7.4) after each binding cycle.
Sequence of FcRn (P55899 24-297 limits assumed, chain 1 of 2): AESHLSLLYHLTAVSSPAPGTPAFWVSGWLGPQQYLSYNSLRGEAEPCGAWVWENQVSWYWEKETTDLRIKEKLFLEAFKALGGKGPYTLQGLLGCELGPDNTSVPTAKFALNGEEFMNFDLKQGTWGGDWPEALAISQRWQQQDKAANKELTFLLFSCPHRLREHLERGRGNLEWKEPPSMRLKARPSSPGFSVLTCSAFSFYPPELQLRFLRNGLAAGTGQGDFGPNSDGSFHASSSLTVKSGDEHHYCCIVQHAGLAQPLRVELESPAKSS
Sequence of FcRn (P61769 21-119 limits assumed, chain 2 of 2): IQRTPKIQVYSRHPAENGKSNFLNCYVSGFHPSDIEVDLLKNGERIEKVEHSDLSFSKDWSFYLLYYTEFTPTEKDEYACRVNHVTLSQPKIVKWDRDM
The binding of W3438-T3U4.E17-1.uIgG4.SP to FcRn was tested by SPR at pH 6.0.

Test [3] deals with T2, human CD19 (human, UniProt P15391 20-556).
T2 construct: whole, on cells; also called CD19 on Ramos cells; CD19 on Raji cells
T2 sequence (looked up): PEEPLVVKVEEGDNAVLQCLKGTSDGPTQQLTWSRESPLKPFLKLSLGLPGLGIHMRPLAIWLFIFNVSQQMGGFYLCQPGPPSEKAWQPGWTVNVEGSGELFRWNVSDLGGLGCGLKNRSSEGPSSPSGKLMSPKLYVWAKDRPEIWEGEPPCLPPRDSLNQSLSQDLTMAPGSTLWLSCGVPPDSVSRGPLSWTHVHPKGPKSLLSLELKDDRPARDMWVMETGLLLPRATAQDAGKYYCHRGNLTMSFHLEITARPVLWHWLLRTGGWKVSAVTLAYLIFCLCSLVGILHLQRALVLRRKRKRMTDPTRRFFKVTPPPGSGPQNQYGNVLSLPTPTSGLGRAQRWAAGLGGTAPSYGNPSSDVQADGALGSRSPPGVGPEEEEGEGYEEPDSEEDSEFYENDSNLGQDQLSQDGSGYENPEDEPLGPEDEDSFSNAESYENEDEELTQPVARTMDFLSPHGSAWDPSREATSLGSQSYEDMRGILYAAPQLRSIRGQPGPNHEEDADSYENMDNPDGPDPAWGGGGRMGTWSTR
Kind of test: flow cytometry affinity on Ramos cells, bound/free versus bound plot; Ramos cells, CD19. The protocol:
(§1) Binding affinity to CD3 and CD19 was determined by flow cytometry using Jurkat and Ramos cells, respectively. The cells were transferred in to 96-well U-bottom plates (BD) at a density of 5×10⁴ cells/well. Antibodies to be tested were 1:2-fold serially diluted in 1% 1×PBS/1% BSA and incubated with cells at 4° C. for 1 hr. Then, the plates were centrifuged at 1500 rpm for 4 mins and the supernatant discarded. The secondary antibody, Alexa647 conjugated goat anti-human IgG Fc (Jackson, Cat #109-605-098) or FITC conjugated goat anti-His (Bethyl, Cat # A190-113F) was added to re-suspended cells and incubated at 4° C. in the dark for 30 min. The cells were washed once and re-suspended in 100 μL 1×PBS/1% BSA. Fluorescence intensity was measured by flow cytometry (BD Canto II) and analyzed by FlowJo. Fluorescence intensity was converted to bound molecules/cell based on the quantitative beads (Quantum™ MESF Kits, Bangs Laboratories). KD was calculated by Graphpad Prism5.
(§2) The binding affinity of W3438-T3U4.E17-1.uIgG4.SP to human CD19 and CD3 was tested on Ramos and Jurkat cells by flow cytometry. The bound IgG/free IgG versus bound IgG was plotted in FIGS. 14A-14B.

The target in test [4] is T3, human CD3 (human, UniProt P07766 23-207).
T3 construct: whole, on cells; On cells CD3 stands as the full CD3/TCR complex; also called CD3 on Jurkat cells
T3 sequence (P07766 23-207): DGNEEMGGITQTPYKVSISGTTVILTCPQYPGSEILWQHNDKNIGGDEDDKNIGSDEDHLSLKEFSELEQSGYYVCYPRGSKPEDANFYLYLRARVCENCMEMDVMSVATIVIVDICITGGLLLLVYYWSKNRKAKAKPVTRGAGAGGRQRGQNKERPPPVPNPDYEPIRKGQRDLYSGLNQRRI
Kind of test: flow cytometry affinity on Jurkat cells, bound/free versus bound plot; Jurkat cells, CD3. How it is done:
as §1, §2

The target of test [5] is T4, C1Q (UniProt P02745 23-245; P02746 28-253; P02747 29-245).
T4 construct: also called Clq
T4 sequence (P02745 23-245 limits assumed, chain 1 of 3): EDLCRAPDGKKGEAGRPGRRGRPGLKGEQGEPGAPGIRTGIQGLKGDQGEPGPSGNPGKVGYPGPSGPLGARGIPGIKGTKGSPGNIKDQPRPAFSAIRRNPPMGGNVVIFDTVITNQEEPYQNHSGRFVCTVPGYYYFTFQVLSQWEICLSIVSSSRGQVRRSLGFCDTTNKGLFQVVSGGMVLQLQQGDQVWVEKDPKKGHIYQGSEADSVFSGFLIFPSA
T4 sequence (P02746 28-253 limits assumed, chain 2 of 3): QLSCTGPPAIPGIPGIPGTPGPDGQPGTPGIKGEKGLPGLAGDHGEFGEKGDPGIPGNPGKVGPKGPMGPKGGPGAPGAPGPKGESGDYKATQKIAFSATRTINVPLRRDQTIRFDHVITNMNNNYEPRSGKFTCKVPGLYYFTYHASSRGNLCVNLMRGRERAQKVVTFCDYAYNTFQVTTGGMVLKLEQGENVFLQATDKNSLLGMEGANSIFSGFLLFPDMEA
T4 sequence (P02747 29-245 limits assumed, chain 3 of 3): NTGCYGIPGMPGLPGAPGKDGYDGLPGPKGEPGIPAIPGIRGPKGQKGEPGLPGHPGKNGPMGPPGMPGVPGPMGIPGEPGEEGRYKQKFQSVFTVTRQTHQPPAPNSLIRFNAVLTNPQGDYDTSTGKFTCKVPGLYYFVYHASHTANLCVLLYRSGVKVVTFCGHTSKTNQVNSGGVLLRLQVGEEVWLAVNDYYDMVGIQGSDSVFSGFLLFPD
Put plainly: ELISA, antibody coated on the plate, C1q titrated (axis [C1q] nM), anti-human C1q-HRP detection. How it is done:
ELISA Plates (Nunc) were coated with antibody samples at 3 μg/mL overnight at 4° C. After blocking and washing, C1q was gradient diluted starting from 600 μg/mL and incubated at room temperature for 2 hr. The plates were then washed and subsequently incubated with sheep anti-human C1q Ab-HRP for 1 hr. After washing, TMB substrate was added and the interaction was stopped by 2 M HCl. The absorbance at 450 nm was read using a microplate reader (Molecular Device).
The binding activity of antibodies to C1Q was tested by ELISA.

The text below walks through data of patent publication US20200283523A1 (WUXI BIOLOGICS IRELAND, published 2020).

B1: W3438-T3U4.E17-1.uIgG4.SP (bispecific antibody)
light 1: DIVMTQSPDSLAVSLGERATINCKSSQSLLNSRTRKNYLAWYQQKPGQPPKLLIYWASTRQSGVPDRFSGSGSGTDFTLTISSLQAEDVAVYYCTQSHTLRTFGGGTKVEIKPDIQNPDPAVYQLRDSKSSDKSVCLFTDFDSQTQVSQSKDSDVYITDKCVLDMRSMDFKSNSAVAWSQKSDFACANAFQNSIIPEDTFFPSPESS
heavy 1: QVQLVQSGAEVKKPGSSVKVSCKASGFAFTDYYIHWVRQAPGQGLEWMGWISPGNVNTKYNENFKGRVTITADKSTSTAYMELSSLRSEDTAVYYCARDGYSLYYFDYWGQGTLVTVLEDLKNVFPPEVAVFEPSEAEISHTQKATLVCLATGFYPDHVELSWWVNGKEVHSGVCTDPQPLKEQPALQDSRYALSSRLRVSATFWQNPRNHFRCQVQFYGLSENDEWTQDRAKPVTQIVSAEAWGRYGPPCPPCPAPEFLGGPSVFLFPPKPKDTLMISRTPEVTCVVVDVSQEDPEVQFNWYVDGVEVHNAKTKPREEQFNSTYRVVSVLTVLHQDWLNGKEYKCKVSNKGLPSSIEKTISKAKGQPREPQVYTLPPCQEEMTKNQVSLWCLVKGFYPSDIAVEWESNGQPENNYKTTPPVLDSDGSFFLYSRLTVDKSRWQEGNVFSCSVMHEALHNHYTQKSLSLSLGK
light 2: DIQLTQSPSFLSASVGDRVTITCSASSTVNYMHWYQQKPGKAPKLLIYSTSNLASGVPSRFSGSGSGTEFTLTISSLQPEDFATYYCHQWSSYPYTFGQGTKLEIKRTVAAPSVFIFPPSDEQLKSGTASVVCLLNNFYPREAKVQWKVDNALQSGNSQESVTEQDSKDSTYSLSSTLTLSKADYEKHKVYACEVTHQGLSSPVTKSFNRGEC
heavy 2: QMQLVQSGPEVKKPGTSVKVSCKASGYAFTSYNMYWVRQARGQRLEWIGYIDPYNGDTTYNQKFKGRVTITRDMSTSTAYMELSSLRSEDTAVYYCLTTAYAMDYWGQGTLVTVSSASTKGPSVFPLAPCSRSTSESTAALGCLVKDYFPEPVTVSWNSGALTSGVHTFPAVLQSSGLYSLSSVVTVPSSSLGTKTYTCNVDHKPSNTKVDKRVESKYGPPCPPCPAPEFLGGPSVFLFPPKPKDTLMISRTPEVTCVVVDVSQEDPEVQFNWYVDGVEVHNAKTKPREEQFNSTYRVVSVLTVLHQDWLNGKEYKCKVSNKGLPSSIEKTISKAKGQPREPQVCTLPPSQEEMTKNQVSLSCAVKGFYPSDIAVEWESNGQPENNYKTTPPVLDSDGSFFLVSRLTVDKSRWQEGNVFSCSVMHEALHNHYTQKSLSLSLGK
notes: Bispecific, bivalent: one anti-CD3 arm with TCR constant domains and one native anti-CD19 Fab arm, IgG4 S228P Fc with knobs-into-holes; also called WBP3438; CD3×CD19 bispecific antibody; copies: 1 + 1 + 1 + 1
The molecule B1 returned a 50% effective concentration (EC50) in test [1] of 0.04 nM. The Kd in test [2] came to 2580 nM; in test [3], 23 nM; in test [4], 9 nM. The binding result in test [5] is listed as “no binding (tested: about 1500 nM C1q)”.

Usually EC50 stands for the concentration that produces a half-maximal response. A low value points to a more potent agent. The Kd is the equilibrium constant for the complex coming apart.
